The text below walks through data of patent publication US20140120095A1 (Boehringer Ingelheim, published 2014).

Experiment [1] deals with T1, human DLL4 overexpressed on cells (human, UniProt Q9NR61 27-685).
T1 construct: full length human DLL4 on CHO or HEK293 cells; also called CHO-hDLL4; CHO-hDII4
The experiment in a line: FMAT, labelled hNotch1-Fc on CHO-hDLL4, periplasmic extract. The text has this: (§1) All calculations are based on the FL1_total signal which comprises the average of the fluorescence per well times the number of counts per well.

Another experiment addresses T2, human Jagged-1 (human, UniProt P78504 34-1067, limits assumed).
T2 construct: also called hJagged-1; hJAG1
The experiment in a line: binding ELISA on coated recombinant human Jagged-1, OD 405 nm. An outline of the steps: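 Plates coated overnight at 4° C with 1 μg/mL ligand, blocked with 1% casein in PBS. VHH dilution series applied; bound VHH detected via mouse anti-myc then anti-mouse-AP conjugate.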
On the technique in general: ELISA stands for enzyme-linked immunosorbent assay.

Experiment [2] has as its target T3, mouse DLL4 overexpressed on cells (mouse, UniProt Q9JI71 27-686).
T3 construct: whole, on cells; also called CHO-mDLL4; CHO-mDII4
The experiment can be described thus: competitive FMAT, hNotch1-Fc on CHO-mDLL4.

The target in experiment [3] is T4, recombinant human DLL4 (human, UniProt Q9NR61 25-522).
T4 construct: also called rhDLL4; hDLL4
The experiment can be described thus: SPR Biacore T100, hDLL4 on chip, VHH/Fab injected. How it is done: Kinetic analysis to determine the affinity of the DII4-VHH interaction is performed by Surface Plasmon Resonance (SPR) on a Biacore T100 instrument. […] Purified VHHs or Fab fragment are injected for 2 minutes at different concentrations (between 10 and 300 nM) and allowed to dissociate for 20 min at a flow rate of 45 μl/min. Between sample injections, the surfaces are regenerated with 10 mM glycine pH1.5 and 100 mM HCl. HBS-N (Hepes buffer pH7.4) is used as running buffer. If possible, data are evaluated by fitting a 1:1 interaction model (Langmuir binding) onto the binding curves. The affinity constant KD is calculated from resulting association and dissociation rate constants (kₐ) and […].
A general note: Surface plasmon resonance follows binding to a sensor surface in real time, without labels.

In experiment [4] the target is T4, recombinant human DLL4. The experiment can be described thus: binding ELISA, coated rhDLL4. Here is the method: (§2) In order to determine cross-reactivity to mouse DII4 a binding ELISA is performed. […] Wells are blocked with a casein solution (1% in PBS). VHHs are applied as dilution series and binding is detected using a mouse anti-myc (Roche) and an anti-mouse-AP conjugate (Sigma, St Louis, Mo., USA) (FIG. 7 A-H). As reference, binding to human DII4 is measured.

The target of the next experiment is T5, recombinant mouse DLL4 (mouse, UniProt Q9JI71 27-532).
T5 construct: extracellular domain; also called rmDLL4; mDLL4
T5 sequence (Q9JI71 27-532): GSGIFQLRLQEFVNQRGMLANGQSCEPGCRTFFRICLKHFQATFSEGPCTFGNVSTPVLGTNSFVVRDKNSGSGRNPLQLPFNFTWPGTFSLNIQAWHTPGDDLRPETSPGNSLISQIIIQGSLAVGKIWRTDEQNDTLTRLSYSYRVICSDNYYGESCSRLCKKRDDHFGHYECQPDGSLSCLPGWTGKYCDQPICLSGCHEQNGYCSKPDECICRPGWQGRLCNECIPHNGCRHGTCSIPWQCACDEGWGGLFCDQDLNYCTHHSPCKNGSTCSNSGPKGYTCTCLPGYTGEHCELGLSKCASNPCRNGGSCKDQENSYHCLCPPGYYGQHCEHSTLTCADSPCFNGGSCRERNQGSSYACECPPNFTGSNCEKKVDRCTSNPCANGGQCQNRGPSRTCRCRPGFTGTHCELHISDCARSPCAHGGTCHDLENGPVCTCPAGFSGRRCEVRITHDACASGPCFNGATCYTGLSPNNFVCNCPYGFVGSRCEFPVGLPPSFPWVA
The experiment in a line: binding ELISA, coated rmDLL4. How it is done: as §2

Experiment [5] deals with T1, human DLL4 overexpressed on cells. The experiment in a line: cell-based or functional assay.
Experiment [6] concerns the target T3, mouse DLL4 overexpressed on cells. The experiment can be described thus: FMAT, labelled hNotch1-Fc on CHO-mDLL4, periplasmic extract.
From the text: as §1

Experiment [7] has as its target T6, cynomolgus DLL4 overexpressed on cells (cynomolgus, UniProt Q9NR61 27-685 (human entry)).
T6 construct: also called cyno DII4; cDLL4
T6 chain: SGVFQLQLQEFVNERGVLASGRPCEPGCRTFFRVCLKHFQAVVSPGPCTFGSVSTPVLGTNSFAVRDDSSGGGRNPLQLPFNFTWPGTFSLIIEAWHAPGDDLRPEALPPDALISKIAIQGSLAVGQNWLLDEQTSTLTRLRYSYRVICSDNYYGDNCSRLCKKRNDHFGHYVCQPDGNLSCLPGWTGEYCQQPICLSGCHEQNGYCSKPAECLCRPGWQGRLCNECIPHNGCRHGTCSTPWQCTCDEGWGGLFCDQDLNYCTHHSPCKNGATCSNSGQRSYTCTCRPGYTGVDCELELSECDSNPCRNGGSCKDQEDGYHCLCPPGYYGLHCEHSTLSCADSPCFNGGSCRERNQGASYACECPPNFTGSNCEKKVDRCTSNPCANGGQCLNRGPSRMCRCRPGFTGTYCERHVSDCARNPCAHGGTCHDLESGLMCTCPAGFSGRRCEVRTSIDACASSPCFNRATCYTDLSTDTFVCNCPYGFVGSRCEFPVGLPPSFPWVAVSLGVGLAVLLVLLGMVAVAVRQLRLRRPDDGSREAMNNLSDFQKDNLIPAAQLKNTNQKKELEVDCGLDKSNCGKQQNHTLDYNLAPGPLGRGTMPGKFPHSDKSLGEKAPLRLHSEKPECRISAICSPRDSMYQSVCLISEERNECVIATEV
The experiment in a line: FACS titration on HEK293-cDLL4 cells, MCF. How it is done:
(§3) In order to determine the cynomologus cross-reactivity of the VHHs, a FACS binding experiment is performed. Cynomolgus DII4 expressing HEK293 cells (transient or stable transfection) are used for a titration binding experiment of the VHHs. After a 30 minutes incubation on ice, all samples are washed and detection is performed by applying anti-c-myc˜Alexa647 (Santa Cruz Biotechnology, Santa Cruz, Calif., USA). Human and mouse DII4 overexpressing HEK293 cells are taken as reference. The mean MCF value is determined on the FACS Array and used for calculation of the EC₅₀ value (see FIG. 9 A-E).

Experiment [8] addresses T3, mouse DLL4 overexpressed on cells. The experiment can be described thus: FACS titration on HEK293-mDLL4 cells, MCF. How it is done:
as §3

In experiment [9] the target is T4, recombinant human DLL4. The experiment can be described thus: competition ELISA, biot-hDLL4 to coated hNotch1-Fc. From the text: Residual binding of biotinylated human DII4 is detected using horseradish peroxidase (HRP) conjugated extravidin (Sigma, St. Louis, Mo., USA) (FIG. 3 A-C). Human DII4 is biotinylated as described above.
The target of experiment [10] is T1, human DLL4 overexpressed on cells. The experiment can be described thus: competitive FMAT, hNotch1-Fc on CHO-hDLL4.
Experiment [11] deals with DII4-His (C-terminal His-tagged human DII4, amino acid 27-524) (human, UniProt Q9NR61 25-522). The experiment can be described thus: cell-based or functional assay.
Another experiment addresses VEGF (UniProt P15692-4 27-191, limits assumed). The experiment in a line: cell-based or functional assay.
For experiment [12], the target named is T4, recombinant human DLL4. The experiment in a line: competition AlphaScreen, biot-hDLL4/hNotch1-Fc. Here is the method:
In brief, 1 nM biotinylated human DII4 is captured on streptavidin-coated donor beads (20 μg/mL), while 0.4 nM of the receptor human Notch1 (as a Fc fusion protein) is captured on anti-human Fc VHH-coated acceptor beads (20 μg/mL). Both loaded beads are incubated together with a dilution range of the competing VHH (FIG. 4 A-E).
In general terms: Alpha assays give light when donor and acceptor beads are brought close together.

VEGF, sequence (P15692 other isoform, or with tags, fused parts or gaps limits assumed): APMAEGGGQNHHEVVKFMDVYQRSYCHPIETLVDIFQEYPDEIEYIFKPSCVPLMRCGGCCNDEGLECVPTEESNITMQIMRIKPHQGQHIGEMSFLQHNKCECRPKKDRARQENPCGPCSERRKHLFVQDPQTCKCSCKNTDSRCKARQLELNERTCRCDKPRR
T3 sequence (Q9JI71 27-686): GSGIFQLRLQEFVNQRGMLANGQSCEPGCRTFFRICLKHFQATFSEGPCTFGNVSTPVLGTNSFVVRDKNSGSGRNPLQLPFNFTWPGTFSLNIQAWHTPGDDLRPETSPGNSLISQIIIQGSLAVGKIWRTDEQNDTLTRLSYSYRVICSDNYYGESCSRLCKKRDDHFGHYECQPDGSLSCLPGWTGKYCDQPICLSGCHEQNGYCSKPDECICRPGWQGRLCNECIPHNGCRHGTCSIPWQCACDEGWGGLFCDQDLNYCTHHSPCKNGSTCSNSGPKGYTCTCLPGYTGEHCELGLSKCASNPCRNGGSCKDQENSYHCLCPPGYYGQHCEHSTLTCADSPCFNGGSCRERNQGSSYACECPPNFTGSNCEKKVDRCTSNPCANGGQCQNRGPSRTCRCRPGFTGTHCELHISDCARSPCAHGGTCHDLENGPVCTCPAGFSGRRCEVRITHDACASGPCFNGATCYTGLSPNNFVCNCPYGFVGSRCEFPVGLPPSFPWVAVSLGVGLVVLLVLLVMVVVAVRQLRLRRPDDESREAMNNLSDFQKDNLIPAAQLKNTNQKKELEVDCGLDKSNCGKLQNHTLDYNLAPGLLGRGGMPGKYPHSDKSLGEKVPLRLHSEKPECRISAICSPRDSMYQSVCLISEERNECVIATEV

B1: DLLBII96C03 (VHH)
VHH: EVQLVESGGGLVQPGGSLRLSCAASGFTFGNYDMSWVRQAPGKGPEWVSAINSGGGDTYYADSVKGRFTISRDNAKNTLYLQMNSLKPEDTAVYYCATPRGWGPTGPHEYGYWGQGTQVTVSS
notes: also called 96C3
As usually defined, the IC50 is the concentration needed to halve the response being measured. For orientation: Kd means a measure of binding affinity in units of concentration. Usually koff stands for the first-order rate constant of dissociation. In general, kon refers to the second-order rate constant of association. A word on the EC50: it is the concentration giving half of the maximal effect. As a reminder, the EC50 (read off the curve) is the concentration needed to bring the measured effect to its halfway point. Read a low EC50 (read off the curve) as an effect from little substance. B1: the “% inh” value worked out at 75% in [1] and 83% in experiment [6]. The binding result in the experiment with human Jagged-1 was “no binding (tested: 5e-7 M)”; in experiment [7], “no binding (tested: 1000 nM)”. The IC50 came to 28.8 nM in [2], 38.4 nM with recombinant human DLL4 [9] and 161 nM in experiment [10]. The Kd in the experiment with recombinant human DLL4 [3] was determined as 310 nM. Also, the koff in the experiment with recombinant human DLL4 [3] worked out at 0.048 s⁻¹. The on-rate constant (kon) with recombinant human DLL4 [3] was determined as 160000 M⁻¹ s⁻¹. Moreover, the EC50 with recombinant human DLL4 [4] amounted to 86.5 nM; with recombinant mouse DLL4, 8.7 nM. In addition, the “IC50, DLL4/Notch1 reporter assay” value in [5] amounted to 5160 nM. Moreover, the “EC50 (read off the curve)” value in experiment [8] is ~20 nM.

B2: VEGFDLLBII014 (bispecific antibody)
chain: EVQLVESGGGLVQTGDSLRLSCEVSGRTFSSYSMGWFRQAQGKEREFVVAISKGGYKYDSVSLEGRFTISKDNAKNTVYLQINSLKPEDTAVYYCASSRAYGSSRLRLADTYEYWGQGTQVTVSSGGGGSGGGSEVQLVESGGGLVQPGGSLRLSCVASGIRFMSMAWYRQAPGKHRELVARISSGGTTAYVDSVKGRFTISRDNSKNTVYLQMNSLKAEDTAVYYCNTFSSRPNPWGAGTQVTVSSGGGGSGGGGSGGGGCGGGGSGGGGSGGGGSGGGGSEVQLVESGGGLVQAGGSLRLSCAASGRTFSSYAMAWYRQAPGKEREYVAAIRWSGGTAYYADSVQGRFTISRDNAKNTVYLQMNSLKPEDTAVYYCANRAPDTRLAPYEYDHWGQGTQVTVSS
modifications: PEGylated 35gs, cys15 linker (PEG on the Cys at position 15 of the 35 Gly-Ser linker; size of the PEG not stated)
For the molecule B2, the “IC50 (nM), DII4-mediated HUVEC proliferation assay, -HSA” value in experiment [11] was found to be 0.53 nM. In addition, in the experiment with VEGF, the “% inhibition, VEGF HUVEC Erk phosphorylation assay, -HSA” value (“% inhibition” below) stood at 101% and the “IC50 (nM), VEGF HUVEC Erk phosphorylation assay, -HSA” value amounted to 0.53 nM.

B3: DLLBII62C11 (VHH)
VHH: EVQLMESGGGLVQPGGSLRLSCVAAGFTFSNYYMSWVRQAPGKGLEWVSVISPDGSNTYYADTVKGRFTISRGNAKNTLFLQMTGLKSEDAAVYYCARGSGSWGVHGQGTQVTVSS
With B3, the results for the “% inh” value in [1] and in [6] were 74% and 71%, respectively. In addition, the results for the binding result (with human Jagged-1; in experiment [7]) were “no binding (tested: 5e-7 M)” and “no binding (tested: 1000 nM)”, respectively. Besides, the half-inhibitory concentration (IC50) in experiment [2] is 106 nM; in the experiment with recombinant human DLL4 [9], 72 nM; in the experiment with recombinant human DLL4 [12] it was 24.1 nM; in [10], 172 nM. In the experiment with recombinant human DLL4 [3], the equilibrium dissociation constant (Kd) was determined as 120 nM. Also, in the experiment with recombinant human DLL4 [3], the koff worked out at 0.13 s⁻¹. The kon with recombinant human DLL4 [3] stood at 1.2e+06 M⁻¹ s⁻¹. Also, the 50% effective concentration (EC50) worked out at 137 nM in the experiment with recombinant human DLL4 [4] and 13.1 nM in the experiment with recombinant mouse DLL4. Also, the “IC50, DLL4/Notch1 reporter assay” value in experiment [5] came to 4660 nM. Further, the “EC50 (read off the curve)” value in experiment [8] is ~20 nM.

B4: VEGFDLLBII013 (bispecific antibody)
chain: EVQLVESGGGLVQTGDSLRLSCEVSGRTFSSYSMGWFRQAQGKEREFVVAISKGGYKYDSVSLEGRFTISKDNAKNTVYLQINSLKPEDTAVYYCASSRAYGSSRLRLADTYEYWGQGTQVTVSSGGGGSGGGGSGGGGCGGGGSGGGGSGGGGSGGGGSEVQLVESGGGLVQAGGSLRLSCAASGRTFSSYAMAWYRQAPGKEREYVAAIRWSGGTAYYADSVQGRFTISRDNAKNTVYLQMNSLKPEDTAVYYCANRAPDTRLAPYEYDHWGQGTQVTVSS
modifications: PEGylated 35gs, cys15 linker (PEG on the Cys at position 15 of the 35 Gly-Ser linker; size of the PEG not stated)
For B4, the “IC50 (nM), DII4-mediated HUVEC proliferation assay, -HSA” value in [11] was 2.06 nM. Moreover, in the experiment with VEGF, the “% inhibition” value came out at 95% and the “IC50 (nM), VEGF HUVEC Erk phosphorylation assay, -HSA” value was found to be 0.89 nM.

B5: VEGFDLLBII015 (bispecific antibody)
chain: EVQLVESGGGLVQTGDSLRLSCEVSGRTFSSYSMGWFRQAQGKEREFVVAISKGGYKYDSVSLEGRFTISKDNAKNTVYLQINSLKPEDTAVYYCASSRAYGSSRLRLADTYEYWGQGTQVTVSSGGGGSGGGGSGGGGCGGGGSGGGGSGGGGSGGGGSEVQLVESGGGLVQPGGSLRLSCVASGIRFMSMAWYRQAPGKHRELVARISSGGTTAYVDSVKGRFTISRDNSKNTVYLQMNSLKAEDTAVYYCNTFSSRPNPWGAGTQVTVSSGGGGSGGGGSGGGGSGGGGSGGGGSGGGGSGGGGSEVQLVESGGGLVQAGGSLRLSCAASGRTFSSYAMAWYRQAPGKEREYVAAIRWSGGTAYYADSVQGRFTISRDNAKNTVYLQMNSLKPEDTAVYYCANRAPDTRLAPYEYDHWGQGTQVTVSS
modifications: PEGylated 35gs, cys15 linker (PEG on the Cys at position 15 of the 35 Gly-Ser linker; size of the PEG not stated)
Turning to B5, in [11], the “IC50 (nM), DII4-mediated HUVEC proliferation assay, -HSA” value came out at 0.28 nM. Further, in the experiment with VEGF, the “% inhibition” value amounted to 106% and the “IC50 (nM), VEGF HUVEC Erk phosphorylation assay, -HSA” value was 0.4 nM.
